# B1: C-terminal fragment of BBK32 of B. burgdorferi B31 (domain or fragment)
# chain: SNRYQSYLEGVKYNVDSAIQTITKIYNTYTLFSTKLTQMYSTRLDNFAKAKAKEEAAKFTKEDLEKNFKTLLNYIQVSVKTAANFVYINDTHAKRKLENIEAEIKTLIAKIKEQSNLYEAYKAIVTSILLMRDSLKEVQGIID
# Tests used:
# [1] = biological target: complement component C1r (human)
# [2] = biological target: CihC/FbpC ortholog of B. parkeri (aa 25-349) (Borrelia parkeri); test: ELISA; CihC/FbpC orthologs (5 µg/ml) immobilised, increasing plasminogen (0 to 1.5 µM); apparent dissociation constant by non-linear regression, one-site specific binding model
# [3] = biological target: CihC/FbpC of B. hermsii FRO (aa 21-374) (Borrelia hermsii FRO); test: as above
# [4] = biological target: CihC/FbpC ortholog of B. turicatae (aa 21-363) (Borrelia turicatae); test: as above
# [5] = biological target: CihC of B. recurrentis A17 (aa 20-356) (Borrelia recurrentis A17); test: as above
Molecule,"IC50 of inhibition of the classical pathway (MAC formation, anti-C5b-9 ELISA on IgM; NHS pre-incubated with 0.001 to 4 µM protein) [1]",other results
CihC-C of B. recurrentis (aa 195-356) (domain or fragment),272 nM,
CihC/FbpC ortholog of B. parkeri (aa 25-349) (natural protein),63 nM,
CihC/FbpC ortholog of B. turicatae (aa 21-363) (natural protein),95 nM,
CihC of B. recurrentis A17 (aa 20-356) (natural protein),62 nM,
CihC/FbpC of B. hermsii FRO (aa 21-374) (natural protein),56 nM,
human glu-plasminogen (natural protein),,Kd [2]: 62.7 nM; Kd [3]: 24.2 nM; Kd [4]: 284 nM; Kd [5]: 93.1 nM
B1,75 nM,

# — article PMC11079166
